Source: patent US20170037110A1 (IMMATICS BIOTECHNOLOGIES, published 2017)

B1: GLLHLTLLL (peptide)
peptide: GLLHLTLLL
B2: LAVHPSGVAL (peptide)
peptide: LAVHPSGVAL
B3: MLLTKLPTI (peptide)
peptide: MLLTKLPTI
B4: SLMPHIPGL (peptide)
peptide: SLMPHIPGL
B5: TLWYRSPEV (peptide)
peptide: TLWYRSPEV
B6: YQIPRTFTL (peptide)
peptide: YQIPRTFTL
B7: ALIENLTHQI (peptide)
peptide: ALIENLTHQI
B8: VLLEAGEGLVTI (peptide)
peptide: VLLEAGEGLVTI
B9: RLAEVGQYEQV (peptide)
peptide: RLAEVGQYEQV
B10: FLLEPGNLEV (peptide)
peptide: FLLEPGNLEV
B11: SVAEGRALMSV (peptide)
peptide: SVAEGRALMSV
B12: LLADELITV (peptide)
peptide: LLADELITV
B13: VMYADIGGMDI (peptide)
peptide: VMYADIGGMDI
B14: YTLPIASSIRL (peptide)
peptide: YTLPIASSIRL
B15: VLLQKIVSA (peptide)
peptide: VLLQKIVSA
B16: TLAPGEVLRSV (peptide)
peptide: TLAPGEVLRSV
B17: LLLAHIIAL (peptide)
peptide: LLLAHIIAL
B18: ALFDAQAQV (peptide)
peptide: ALFDAQAQV
B19: SMLEPVPEL (peptide)
peptide: SMLEPVPEL
B20: RVWDISTVSSV (peptide)
peptide: RVWDISTVSSV
B21: GLLPTPITQQASL (peptide)
peptide: GLLPTPITQQASL
B22: LLWDVPAPSL (peptide)
peptide: LLWDVPAPSL
B23: LLADLLHNV (peptide)
peptide: LLADLLHNV
B24: VMIAGKVAVV (peptide)
peptide: VMIAGKVAVV
B25: TLDITPHTV (peptide)
peptide: TLDITPHTV
B26: VLSSLEINI (peptide)
peptide: VLSSLEINI
B27: ALWENPESGEL (peptide)
peptide: ALWENPESGEL
B28: AMLENASDIKL (peptide)
peptide: AMLENASDIKL
B29: FLYDEIEAEVNL (peptide)
peptide: FLYDEIEAEVNL
B30: KLYESLLPFA (peptide)
peptide: KLYESLLPFA

What follows are binders tested against T1, HLA-A*02:01 (human) (assay: UV peptide exchange ELISA).
T1 construct: monomers captured on streptavidin plates; also called MHC class I
Procedure, shortened: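 Peptide-MHC complexes formed by UV-triggered exchange of a cleavable peptide for the test peptide, with stabilised complexes indicating binding. Exchange products diluted 100 fold onto streptavidin-coated wells, 1h at 37° C.; HRP anti-β2m (2 μg/ml), TMB, absorbance at 450 nm gives exchange yield.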
In the case of B1, the peptide exchange yield is reported as 50 to 75%. B2 was tested, and the peptide exchange yield was 10 to 20%. B3 showed a peptide exchange yield of 50 to 75%. For B4, the peptide exchange yield was 50 to 75%. In the case of B5, the peptide exchange yield is reported as 20 to 50%. With B6 the peptide exchange yield was 20 to 50%. With B7 the peptide exchange yield was 20 to 50%. In the case of B8, the peptide exchange yield is reported as 50 to 75%. For B9, the peptide exchange yield was 20 to 50%. For B10, the peptide exchange yield was ≥ 75%. B11 gave a peptide exchange yield of 50 to 75%. For B12, the peptide exchange yield was 50 to 75%. With B13 the peptide exchange yield was 50 to 75%. B14 gave a peptide exchange yield of 50 to 75%. In the case of B15, the peptide exchange yield is reported as 50 to 75%. B16 was tested, and the peptide exchange yield was 50 to 75%. In the case of B17, the peptide exchange yield is reported as 20 to 50%. With B18 the peptide exchange yield was 50 to 75%. B19 was tested, and the peptide exchange yield was 50 to 75%. For B20, the peptide exchange yield was 50 to 75%. B21 showed a peptide exchange yield of 50 to 75%. For B22, the peptide exchange yield was 50 to 75%. B23 was tested, and the peptide exchange yield was 50 to 75%. Work on B24 yielded a peptide exchange yield of 50 to 75%. Work on B25 yielded a peptide exchange yield of 50 to 75%. For B26, the peptide exchange yield was 20 to 50%. With B27 the peptide exchange yield was 20 to 50%. B28 was tested, and the peptide exchange yield was 50 to 75%. In the case of B29, the peptide exchange yield is reported as 50 to 75%. B30 showed a peptide exchange yield of 50 to 75%.
